Sequences and labels used below:
B1: CPEB3 Ribozyme (parent)
chain: GGGGGCCACAGCAGAAGCGUUCACGUCGCGGCCCCUGUCAGAUUCUGGUGAAUCUGCGAAUUCUGCUGU

Consider 39 variants from the RNAGym collection of RNA variant scans (doi:10.7554/elife.80360).

In the series the parent is B1. The experiment in a line: self-cleavage, relative activity (ratio to wild type); higher = more cleavage; co-transcriptional.
With GGGGGCCACAGCAGAAGUGUUCACGGCGCGGCCCCUGUCAGAUUCUGGUGAAUCUGCGAAUUCUGCUGU, the self-cleavage was found to be 0.697. Then GGGGGCCACAGCAGAAGUGUUCACGCCGCGGCCCCUGUCAGAUUCUGGUGAAUCUGCGAAUUCUGCUGU, with 0.732.

Take GGGGGCCACAGCAGAAGUGUUCACGUCGCGGCCCCUGUCAGAUUCUGGUGAAUCUGAGAAUUCUGCUGU: the self-cleavage is 0.24. Then GGGGGCCACAGCAGAAGUGUUCACGUCGCGGCCCCUGUCAGAUUCUGGUGAAUCUGGGAAUUCUGCUGU, with 0.271; and GGGGGCCACAGCAGAAGUGUUCACGUCGCGGCCCCUGGCAGAUUCUGGUGAAUCUGCGAAUUCUGCUGU, with 0.116. The same measure for GGGGGCCACAGCAGAAGUGUUCACGUCGCGGCCCCUGCCAGAUUCUGGUGAAUCUGCGAAUUCUGCUGU: 0.694. Then GGGGGCCACAGCAGAAGUGUUCACGUCGCGGCCCCUGACAGAUUCUGGUGAAUCUGCGAAUUCUGCUGU, with 0.671; and GGGGGCCACAGCAGAAGUGUUCAGGUCGCGGCCCCUGUCAGAUUCUGGUGAAUCUGCGAAUUCUGCUGU, with 0.164. For GGGGGCCACAGCAGAAGUGUUCAAGUCGCGGCCCCUGUCAGAUUCUGGUGAAUCUGCGAAUUCUGCUGU, the self-cleavage amounted to 0.416. The same measure for GGGGGCCACAGCAGAAGUGUUCACGUCGCGGCCCCUGUCAGAUUCUGGUGAAUCUGCGAAUUUUGCUGU: 0.678; for GGGGGCCACAGCAGAAGUGUUCACGUCGCGGCCCCUGUCAGAUUCUGGUGAAUCUGCGAAUUGUGCUGU: 0.306. Then GGGGGCCACAGCAGAAGUGUUCACGUCGCGGCCCCUGUCAGAUUCUGGUGAAUCUGCGAAUUAUGCUGU, with 0.284; and GGGGGCCACAGCAGAAGUGUUCACGUCGCGGCCCCUGUAAGAUUCUGGUGAAUCUGCGAAUUCUGCUGU, with 0.387; and GGGGGCCACAGCAGAAGUGUUCACGUCGCGGCCCCUGUUAGAUUCUGGUGAAUCUGCGAAUUCUGCUGU, with 0.551. With GGGGGCCACAGCAGAAGUGUUCACCUCGCGGCCCCUGUCAGAUUCUGGUGAAUCUGCGAAUUCUGCUGU, the self-cleavage was 0.153. The same measure for GGGGGCCACAGCAGAAGUGUUCACAUCGCGGCCCCUGUCAGAUUCUGGUGAAUCUGCGAAUUCUGCUGU: 0.157; for GGGGGCCACAGCAGAAGUGUUCACUUCGCGGCCCCUGUCAGAUUCUGGUGAAUCUGCGAAUUCUGCUGU: 0.17.

Turning to GGGGGCCACAGCAGAAGUGUUCACGUCGCGGCCCCUGUCAGAUUCUGGUGAAUCUGCGAAUUCUCCUGU, the self-cleavage is 0.363.

Turning to GGGGGCCACAGCAGAAGUGUUCACGUCGCGGCCCCUGUCAGAUUCUGGUGAAUCUGCGAAUUCUACUGU, the self-cleavage stood at 0.332. On to GGGGGCCACAGCAGAAGUGUUCACGUCGCGGCCCCUGUCAGAUUCUGGUGAAUCUGCGGAUUCUGCUGU, for which the self-cleavage was 0.793.

Turning to GGGGGCCACAGCAGAAGUGUUCACGUAGCGGCCCCUGUCAGAUUCUGGUGAAUCUGCGAAUUCUGCUGU, the self-cleavage came out at 0.198. Consider GGGGGCCACAGCAGAAGUGUUCACGUUGCGGCCCCUGUCAGAUUCUGGUGAAUCUGCGAAUUCUGCUGU, for which the self-cleavage was determined as 0.121. The same measure for GGGGGCCACAGCAGAAGUGUUCACGUGGCGGCCCCUGUCAGAUUCUGGUGAAUCUGCGAAUUCUGCUGU: 0.194; for GGGGGCCACAGCAGAAGUGUUCACGUCGCGGCCCCUAUCAGAUUCUGGUGAAUCUGCGAAUUCUGCUGU: 0.193. The same measure for GGGGGCCACAGCAGAAGUGUUCACGUCGCGGCCCCUCUCAGAUUCUGGUGAAUCUGCGAAUUCUGCUGU: 0.13; for GGGGGCCACAGCAGAAGUGUUCACGUCGCGGCCCCUGUCAGAUUCUGGUGAUUCUGCGAAUUCUGCUGU: 0.87; for GGGGGCCACAGCAGAAGUCUUCACGUCGCGGCCCCUGUCAGAUUCUGGUGAAUCUGCGAAUUCUGCUGU: 0.168. Then GGGGGCCACAGCAGAAGUUUUCACGUCGCGGCCCCUGUCAGAUUCUGGUGAAUCUGCGAAUUCUGCUGU, with 0.142; and GGGGGCCACAGCAGAAGUGUUCACGUCGCGGCCCCCGUCAGAUUCUGGUGAAUCUGCGAAUUCUGCUGU, with 0.562. As to GGGGGCCACAGCAGAAGUGUUCACGUCGCGGCCCCAGUCAGAUUCUGGUGAAUCUGCGAAUUCUGCUGU, the self-cleavage came to 0.109. The same measure for GGGGGCCACAGCAGAAGUGUUCACGUCACGGCCCCUGUCAGAUUCUGGUGAAUCUGCGAAUUCUGCUGU: 0.909. For the variant GGGGGCCACAGCAGAAGUGUUCACGUCGCGGCCCCUGUCAGAUUCUGGUGAAUCUACGAAUUCUGCUGU, the self-cleavage worked out at 0.706. Consider GGGGGCCACAGCAGAAGUGAUCACGUCGCGGCCCCUGUCAGAUUCUGGUGAAUCUGCGAAUUCUGCUGU, for which the self-cleavage was found to be 0.108. Take GGGGGCCACAGCAGAAGUGCUCACGUCGCGGCCCCUGUCAGAUUCUGGUGAAUCUGCGAAUUCUGCUGU: the self-cleavage was 0.135. As for GGGGGCCACAGCAGAAGUGUUUACGUCGCGGCCCCUGUCAGAUUCUGGUGAAUCUGCGAAUUCUGCUGU, the self-cleavage came to 0.108. The same measure for GGGGGCCACAGCAGAAGUGUUGACGUCGCGGCCCCUGUCAGAUUCUGGUGAAUCUGCGAAUUCUGCUGU: 0.197. The same measure for GGGGGCCACAGCAGAAGUGUUCACGUCGCGGCCCCUGUCAGAUUCUGGUAAAUCUGCGAAUUCUGCUGU: 0.906; for GGGGGCCACAGCAGAAGUGUUCACGUCGCGGCCCCUGUCAGAUUCUGGUGAAUCUGCGAAUUCUGAUGU: 0.297; for GGGGGCCACAGCAGAAGUGUUCACGUCGCGGCCCCUGUCAGAUUCUGGUGAAUCUGCGAAUUCUGUUGU: 0.704.
